Source: US20260327578A1, “TRANSGLUTAMINASES AND USES THEREOF” (CURIE CO. INC., priority 2023, published 2026)
Changes are numbered by the printed parent chain. In names and notes the source's numbering stands.

B1: A5: Tgase variant S2P Q50S Q74A K91H Q124L K151R K152R N282D S284A H289I S299E relative to SEQ ID NO: 2 (protein, UniProt P81453 77-407, looked up, variant S2P Q50S Q74A K91H Q124L K151R K152R N282D S284A H289I S299E)
Protein-glutamine …: DPDDRVTPPAEPLDRMPDPYRPSYGRAETVVNNYIRKWQQVYSHRDGRKSQMTEEQREWLSYGCVGVTWVNSGAYPTNRLAFASFDEDRFHNELKNGRPRSGETRAEFEGRVAKESFDEEKGFLRAREVASVMNRALENAHDESAYLDNLRRELANGNDALRNEDARSPFYSALRNTPSFKERNGGNHDPSRMKAVIYSKHFWSGQDRSSSADKRKYGDPDAFRPAPGTGLVDMSRDRNIPRSPTSPGEGFVNFDYGWFGAQTEADADKTVWTHGNHYHAPDGALGAMIVYESKFRNWEEGYSDFDRGAYVITFIPKSWNTAPDKVKQGWP
B2: A12: Tgase variant S2P R15T Q50S Q74A K91H Q124L K151R K152R N282M G283A H289I relative to SEQ ID NO: 2 (protein, UniProt P81453 77-407, looked up, variant S2P R15T Q50S Q74A K91H Q124L K151R K152R N282M G283A H289I)
Protein-glutamine …: B1 Protein-glutamine … with R15T, D282M, G283A, A284S, E299S
B3: A15: Tgase variant S2P Q50S Q74A K91H K95E Q124L K151R K152R N282M G283A relative to SEQ ID NO: 2 (protein, UniProt P81453 77-407, looked up, variant S2P Q50S Q74A K91H K95E Q124L K151R K152R N282M G283A)
Protein-glutamine …: B1 Protein-glutamine … with K95E, D282M, G283A, A284S, I289H, E299S
B4: A11: Tgase variant S2P D14W Q50S Q74A K91H Q124L S131I K151R K152R N282M G283A S299V relative to SEQ ID NO: 2 (protein, UniProt P81453 77-407, looked up, variant S2P D14W Q50S Q74A K91H Q124L S131I K151R K152R N282M G283A S299V)
Protein-glutamine …: B1 Protein-glutamine … with D14W, S131I, D282M, G283A, A284S, I289H, E299V
B5: A18: Tgase variant S2P Q50S Q51A Q74A K91H Q124L K151R K152R N282M G283A H289I relative to SEQ ID NO: 2 (protein, UniProt P81453 77-407, looked up, variant S2P Q50S Q51A Q74A K91H Q124L K151R K152R N282M G283A H289I)
Protein-glutamine …: B1 Protein-glutamine … with Q51A, D282M, G283A, A284S, E299S
B6: A6: Tgase variant S2P D14W Q50S Q74A K91H Q124L K151R K152R A166W N282M G283A S299V relative to SEQ ID NO: 2 (protein, UniProt P81453 77-407, looked up, variant S2P D14W Q50S Q74A K91H Q124L K151R K152R A166W N282M G283A S299V)
Protein-glutamine …: B1 Protein-glutamine … with D14W, A166W, D282M, G283A, A284S, I289H, E299V
B7: A17: Tgase variant S2P D14N Q50S Q74A K91H Q124L K151R K152R N282M G283A relative to SEQ ID NO: 2 (protein, UniProt P81453 77-407, looked up, variant S2P D14N Q50S Q74A K91H Q124L K151R K152R N282M G283A)
Protein-glutamine …: B1 Protein-glutamine … with D14N, D282M, G283A, A284S, I289H, E299S
B8: A16: Tgase variant S2P D18T Q50S Q74A K91H Q124L S131R V132L K151R K152R N282M G283A relative to SEQ ID NO: 2 (protein, UniProt P81453 77-407, looked up, variant S2P D18T Q50S Q74A K91H Q124L S131R V132L K151R K152R N282M G283A)
Protein-glutamine …: B1 Protein-glutamine … with D18T, S131R, V132L, D282M, G283A, A284S, I289H, E299S
B9: A1: Tgase variant S2P Q50S Q74A K91H Q124L K151R K152R N282R relative to SEQ ID NO: 2 (protein, UniProt P81453 77-407, looked up, variant S2P Q50S Q74A K91H Q124L K151R K152R N282R)
Protein-glutamine …: B1 Protein-glutamine … with D282R, A284S, I289H, E299S
B10: A2: Tgase variant S2P Q50S Q74A K91H Q124L K151R K152R N282E S284A relative to SEQ ID NO: 2 (protein, UniProt P81453 77-407, looked up, variant S2P Q50S Q74A K91H Q124L K151R K152R N282E S284A)
Protein-glutamine …: B1 Protein-glutamine … with D282E, I289H, E299S
B11: A8: Tgase variant S2P D14W Q50S Q74A K91H Q124L K151R K152R N282M G283A S299A relative to SEQ ID NO: 2 (protein, UniProt P81453 77-407, looked up, variant S2P D14W Q50S Q74A K91H Q124L K151R K152R N282M G283A S299A)
Protein-glutamine …: B1 Protein-glutamine … with D14W, D282M, G283A, A284S, I289H, E299A
B12: A9: Tgase variant S2P Q50S Q74A K91H K95E Q124L K151R K152R N282M G283A S299V relative to SEQ ID NO: 2 (protein, UniProt P81453 77-407, looked up, variant S2P Q50S Q74A K91H K95E Q124L K151R K152R N282M G283A S299V)
Protein-glutamine …: B1 Protein-glutamine … with K95E, D282M, G283A, A284S, I289H, E299V
B13: A7: Tgase variant S2P Q50S Q74A K91H Q124L K151R K152R N282M G283A S299V relative to SEQ ID NO: 2 (protein, UniProt P81453 77-407, looked up, variant S2P Q50S Q74A K91H Q124L K151R K152R N282M G283A S299V)
Protein-glutamine …: B1 Protein-glutamine … with D282M, G283A, A284S, I289H, E299V
B14: A10: Tgase variant S2P A10T Q50S Q74A K91H Q124L S131I K151R K152R N282M G283A S299V relative to SEQ ID NO: 2 (protein, UniProt P81453 77-407, looked up, variant S2P A10T Q50S Q74A K91H Q124L S131I K151R K152R N282M G283A S299V)
Protein-glutamine …: B1 Protein-glutamine … with A10T, S131I, D282M, G283A, A284S, I289H, E299V
B15: A14: Tgase variant S2P Q50S Q51E Q74A K91H Q124L Y146F K151R K152R N282M G283A H289I S299V relative to SEQ ID NO: 2 (protein, UniProt P81453 77-407, looked up, variant S2P Q50S Q51E Q74A K91H Q124L Y146F K151R K152R N282M G283A H289I S299V)
Protein-glutamine …: B1 Protein-glutamine … with Q51E, Y146F, D282M, G283A, A284S, E299V
B16: A13: Tgase variant S2P Q50S Q51E Q74A K91H Q124L K151R K152R F170I N282M G283A H289I S299V relative to SEQ ID NO: 2 (protein, UniProt P81453 77-407, looked up, variant S2P Q50S Q51E Q74A K91H Q124L K151R K152R F170I N282M G283A H289I S299V)
Protein-glutamine …: B1 Protein-glutamine … with Q51E, F170I, D282M, G283A, A284S, E299V

Test system: N,N-dimethylcasein
Test: Productivity: total product formed after 24 hours (protein functionalization assay)
Assay type: biochemical
Design: key: −: a reduction in activity; +: an improvement between 1.2 and 2-fold; ++: an improvement between 2 and 5-fold; +++: an improvement greater than 5-fold
Settings: improvement relative to wild-type Tgase (SEQ ID NO: 2); total product after 24 h
Method: (§1) Enzymatic “productivity” is a measure of product formation or substrate disappearance over time, at a prescribed temperature under specified reaction conditions. It is the measure both the durability and reaction yield of the enzyme variant. In this instance, productivity is defined as total product formed over 24-hours at a constant substrate concentration when the enzyme is the rate limiting factor. The time is defined as 24 hours, which represents approaching or surpassing burnout, denaturation, or self-reaction of the enzyme variant. In other words, variants with higher productivity deliver a higher product yield in 24-hours than variants with lower productivity produce in the same period of time. “Rate” refers to the initial rate for an enzymatic reaction, at a prescribed temperature under specified reaction conditions. The enzyme produces product at an initial rate that is approximately linear for a short period after the start of the reaction. When concentrations of enzyme and substrate are the same across the sample set, initial rates between enzyme variants can be compared. In this instance, the linear range for production of product occurs in one hour. Enzyme variants with faster initial rates deliver a higher product yield in one hour than variants with slower initial rates produce at the same time-period. In some cases, improvements to initial rates also deliver a more productive variant. In some cases, improvements to initial rates result in faster decay of the enzyme variant reducing overall enzymatic productivity. Productivity and rate may be assessed as described in Example 2.
(§2) Table 6 depicts variants of Streptomyces mobaraensis Tgase and improvement to productivity and/or rate relative to wild-type Tgase (SEQ ID NO. 2) as determined in Example 3. Numbering of amino acid positions is in reference to the mature S. mobaraensis Tgase sequence depicted in SEQ ID NO. 2. A “−” indicates a reduction in activity. A “+” indicates an improvement between 1.2 and 2-fold. A “++” indicates an improvement between 2 and 5-fold. A “+++” indicates an improvement greater than 5-fold.
To evaluate productivity, total product formed was measured after 24-hours of incubation, using the assay described in Example 4B. The time is defined as 24 hours which represents approaching or surpassing burnout, denaturation, or self-reaction of the enzyme variant.
(§3) Protein functionalization by Tgase variants was determined by the fluorogenic labeling of casein using monodansylcadaverine (e.g., a commercially available kit such as the Transglutaminase Fluorogenic Activity Assay Kit, T036, Zedira, Germany). Tgase activity was monitored by measuring fluorescence (excitation wavelength 332 nm; emission wavelength 500 nm) using a BioTek Synergy H1 microplate reader. Transglutaminase-catalyzed covalent coupling (crosslinking) of monodansylcadaverine with N,N-dimethylcasein produces a product that causes a shift in intensity and wavelength of fluorescence of the dansyl group now linked to the casein. The relative transglutaminase activity is shown by increase of fluorescence intensity over time. Enzyme variant loading was optimized based on expression levels, ensuring enzyme was the rate limiting factor. Briefly, cell-free reactions (set up as described in Example 2A) were first diluted 10-fold using phosphate buffer, pH 7.4, and a 5 microliter aliquot was analyzed.

Row | Molecule | Productivity
1 | B1 | + (an improvement between 1.2 and 2-fold)
2 | B2 | + (an improvement between 1.2 and 2-fold)
3 | B3 | −
4 | B4 | + (an improvement between 1.2 and 2-fold)
5 | B5 | −
6 | B6 | ++ (an improvement between 2 and 5-fold)
7 | B7 | −
8 | B8 | −
9 | B9 | + (an improvement between 1.2 and 2-fold)
10 | B10 | −
11 | B11 | + (an improvement between 1.2 and 2-fold)
12 | B12 | + (an improvement between 1.2 and 2-fold)
13 | B13 | + (an improvement between 1.2 and 2-fold)
14 | B14 | + (an improvement between 1.2 and 2-fold)
15 | B15 | + (an improvement between 1.2 and 2-fold)
16 | B16 | + (an improvement between 1.2 and 2-fold)

Test system: N,N-dimethylcasein
Test: Rate of product formation over 60 minutes (protein functionalization assay)
Assay type: biochemical
Design: key: −: a reduction in activity; +: an improvement between 1.2 and 2-fold; ++: an improvement between 2 and 5-fold; +++: an improvement greater than 5-fold
Settings: improvement relative to wild-type Tgase (SEQ ID NO: 2); initial rate over 60 min
Method: as §1, §2
Rate was assessed by measuring the rate of product formation over 60 minutes of incubation using a kinetic method to take scans every 60 seconds to determine product formation, using reaction conditions as described in Example 4B. The enzyme produces product at an initial rate that is approximately linear for the first one hour of the reaction. The concentrations of enzyme and substrate are the same across the sample set for each enzyme variant. Enzyme variants with faster initial rates deliver a higher product yield in one hour than variants with slower initial rates produce at the same time-period.
as §3

Row | Molecule | Rate
17 | B1 | −
18 | B2 | + (an improvement between 1.2 and 2-fold)
19 | B3 | + (an improvement between 1.2 and 2-fold)
20 | B4 | + (an improvement between 1.2 and 2-fold)
21 | B5 | + (an improvement between 1.2 and 2-fold)
22 | B6 | +++ (an improvement greater than 5-fold)
23 | B7 | + (an improvement between 1.2 and 2-fold)
24 | B8 | ++ (an improvement between 2 and 5-fold)
25 | B9 | −
26 | B10 | + (an improvement between 1.2 and 2-fold)
27 | B11 | ++ (an improvement between 2 and 5-fold)
28 | B12 | + (an improvement between 1.2 and 2-fold)
29 | B13 | + (an improvement between 1.2 and 2-fold)
30 | B14 | + (an improvement between 1.2 and 2-fold)
31 | B15 | −
32 | B16 | + (an improvement between 1.2 and 2-fold)
